Reference: patent US20240327502A1
Changes are numbered by the printed parent chain.

B1: M4A02 (antibody, V domains shown)
VH: EVQLVESGGGLVEPGGSLRLSCAASGFMFTSYAMHWVRQAPGRGLEWVSSITGGGNFVEYAVSVQGRFTVSRDNNQNSLYLQMNSLRVEDTAMYYCAREDYNSGANLHWFDPWGQGTLVTVSS
VL: QSVLTQPPSVSGAPGQRVTISCTGSSSNIGAFFDVHWYSHLPGTAPKLLIYGDRNRPSGVPERFSGSKSGASASLTITGLRAEDEADYYCQSYDRGLSAWVFGGGTRVTVL
B2: M4A11 (antibody, V domains shown)
VH: QVQLVQSGSEVKRPGASVRVSCTASGYTFSNYGVSWMRQAPGHGLEWMGWISTHNQNVRYSQNFQGRVTVTTDTSTSTAYMDLRGLKPDDTAVYFCARMIPVGTTYTPYWTGWTPGGMDIWGQGTTVIVSS
VL: QSVLTQPPSASGTPGQRVIMSCSGTTSNIGRNFVYWYQQLPKEAPTLLIYGNDQRPAGVPDRFSGSTSGTSASLAISGLRSGDEADYYCATWDDSVNGPVFGGGTKLTVL
B3: M4A05 (antibody, V domains shown)
VH: EVQLVESGGGLVKPGGSLRLSCAAFGFSLSGYGMNWVRQAPGKGLQWVSSITASSSYITYRDSLRGRFTISRDNAQNSLYLDMTALRVEDTAVYYCATNGKLPPYFDHWGQGVLVVVSS
VL: QSVLTQPPSVSGAPGQRVTISCTGSGSNIGAGYDVHWYQQLPGTAPKLLIYDNNHRASGVPDRVSASWSGTSASLAITGLQAEDEADYYCQSYDRNLEGVVFGGGTKLTVL
B4: M3A06 (antibody, V domains shown)
VH: EVQLVESGGGLVKPGGSLRLSCAASGFTLTSYSMNWVRQAPGKGLEWVSSISSSSSYIHYADSVKGRFTISRDNAKNSVYLQMNSLRAEDTAAYYCARVARELDPFDMWGQGTVVTVAS
VL: QSVLTQPPSVSGAPGQRVTISCTGSSSNIGAGYDVHWYQQLPGTAPKLLVYANNNRPSGVPDRFSGSKSGTSASLAITGLQADDEADYYCQSYDRSLSGSVFGGGTKLTVL
B5: M3B02 (antibody, V domains shown)
VH: EVQLVESGGGLVKPGGSLRISCVASEFTLSGYAMNWVRQVPGKGLEWVSSISSSSSYINYADFVKGRFTISRDNAKNSVFLQLNSLRPEDTALYYCVRERPTAILPYLDLWGRGTLVTVSS
VL: B4 VL with H36Q, L41S, V50I, Y51H, A52G, D83E, S100W

Legend:
Assay in all cases: cell-based or functional assay
[1] = substrate: F protein of hMPV A virus (human metapneumovirus subtype A)
[2] = substrate: F protein of RSV B/Washington virus (respiratory syncytial virus B, Washington strain)
[3] = substrate: F protein of hMPV B virus (human metapneumovirus subtype B)

| Binder | PRNT IC50 [1] | PRNT IC50 [2] | PRNT IC50 [3] |
| --- | --- | --- | --- |
| B1 | 0.186 µg/mL | 0.0364 µg/mL | 0.0927 µg/mL |
| B2 | > 10 µg/mL |  | > 10 µg/mL |
| B3 | 0.0569 µg/mL | 0.0295 µg/mL | 0.0425 µg/mL |
| B4 | 0.31 µg/mL | 0.0274 µg/mL | 0.416 µg/mL |
| B5 | 1.06 µg/mL | 0.0153 µg/mL | 1.54 µg/mL |
